# Laboratory results: patent US9150655B2, “Anti-C-met antibody and methods of use thereof” (ACADEMIA SINICA, priority 2010, dated 2015)
# Tests used:
# [1] = target: T1, 293T cells ectopically expressing human c-Met (Homo sapiens, UniProt P08581); assay: Phage binding to c-Met-overexpressing 293T cells (flow cytometry, immunofluorescence); type: cell-based; conditions: 293T overexpressing c-Met vs 293T; flow cytometry and immunofluorescence
# T1 construct: The DNA encoding full-length c-Met was amplified by PCR; expressed in transfected cells; host or cells: 293T cells transfected with pEF-c-Met expression vector
# Method: For immunofluorescence staining assay, 293T cells were grown on coverslips to 80% confluence. Transfection of the cells with pEF-c-Met expression vector was performed using Lipofectamin 2000 (Invitrogen) according to manufacturer's instructions. At 48 hrs post-transfection, the cells were incubated with the selected anti-c-Met phage or control phage, by 1×10^10 phage titer for 30 min at 4° C. After the cells were washed twice with PBS, they were fixed by 4% paraformaldehyde, permeabilized with 0.1% TritonX-100 and blocked with 3% BSA. […] The fluorescence images were captured by inverted fluorescence microscope (Axiovert 200M, Zeiss).
# For flow cytometry analysis, 293T cells were grown to 80% confluence and transfected with pEF-c-Met expression vector as described above. […] Analysis was performed using FACSCantoll (BD) and emission fluorescence intensity was measured by FACSDiva software (BD) to quantitatively compare their binding affinities
# To examine the specificity and binding affinity of the three phage clones, a comparative ELISA using the same phage titer was performed. […] The three clones were assessed for binding to cell-surface c-Met by flow cytometry and immunofluorescence assay using 293T cells ectopically expressing human c-Met. […]
# c-Met-Fc protein = target: T2, c-Met-Fc protein (Homo sapiens, UniProt P08581); assay: Phage ELISA for binding to c-Met-Fc protein; conditions: same phage titer
# T2 construct: Fc; purchased R&D
# Method: Selection of phages displaying specific anti-c-Met scFv was performed by protein G dynabeads (Invitrogen). c-Met-Fc recombinant protein (R&D) was incubated with protein G dynabeads at room temperature (RT) for 1 hr. The scFv library (2×10^9 members) was subtracted non-specific binding in protein G dynabeads and subsequently incubated with c-Met-Fc immobilized dynabeads for 1 hr at 4° C. Unbound phages were removed by washing 4 times with PBST. The phages that bound to c-Met-Fc were recovered by infection with E. coli TG1 cells at 37° C. for 30 min. Part of the infected cells were serial diluted to determine titer, and the others were rescued by M13KO7 helper phage (NEB). […]
# To examine the specificity and binding affinity of the three phage clones, a comparative ELISA using the same phage titer was performed. […] The three clones were assessed for binding to cell-surface c-Met by flow cytometry and immunofluorescence assay using 293T cells ectopically expressing human c-Met. […] Soluble anti-c-Met scFvs were purified from periplasmic extract of phage-infected E-coli HB2151 by protein L agarose chromatography, and then assessed by coomassie blue staining representing purified anti-c-Met scFv proteins (S1, S20 and S21) localized in vicinity of 30 kDa corresponding to protein weight marker (upper panel of FIG. 8, panel B).
# [2] = target: T3, c-Met expressed on H1993 cells (Homo sapiens, UniProt P08581); assay: Competition ELISA: phage clones inhibit HGF binding to H1993 cells; conditions: phage-displayed scFv; HGF binding without competitors = 100%
# T3 construct: H1993 is known to express a high level of c-Met; endogenous in cells; host or cells: H1993
# Method: (§1) To test whether the three anti-c-Met scFvs could inhibit HGF binding to c-Met, the human lung cancer cell line H1993 was chosen to undergo competition ELISA (Lutterbach B et al. (2007) Cancer Res 67:2081-2088). […] HGF binding to H1993 cells without competitors was considered 100%. H1993 is known to express a high level of c-Met. When H1993 cells were incubated with HGF in the presence of the phage clones, the binding of HGF to H1993 cells was diminished by more than 90% by the anti-c-Met scFv PC1. PC20 inhibited more than 50% of HGF binding to c-Met (FIG. 2, panel A). The competitive inhibition of HGF by different concentrations of soluble scFvs was also tested. Normal mouse IgG (NMIgG) was used as a negative control. HGF binding to immobilized c-Met protein without competitors was considered 100%.
# c-Met932-Fc protein = target: T4, c-Met932-Fc protein (Homo sapiens, UniProt P08581); assay: Binding kinetics of anti-c-Met scFv by SPR (BIAcore)
# T4 construct: DNA fragments encoding amino acid residues 1 to 932 and 1 to 567 of c-Met were amplified by PCR; made in house; host or cells: 293T cells, transient transfection, protein G purification from supernatant
# Method: The affinity and kinetics of anti-c-Met scFv were measured by SRP in BIAcore X (GE healthcare). In BIAcore flowcell, 30 μg/ml of c-MetF932-Fc protein was coupled to EDC- and NHS-activated CM5 sensor chip followed by blocking with ethanolamine according to manufacturer's directions. Associated and dissociated phases were monitored for 3 and 5 min, respectively, under continuous flow of 30 μl/min using scFv concentrations ranging 5 to 200 nM. Regeneration was performed by injection of regenerate buffer (0.2 M NaCl, 10 mM glycine, pH 2.7). To determine binding constants, the sensorgrams were fit globally to a sample 1:1 interaction model using BIAevaluation software (GE healthcare).
# Binding kinetic constants (Kon and Koff) and affinity of each soluble scFv for c-Met932-Fc protein were measured by Surface Plasmon Resonance (SPR).
# Kon and Koff were measured by SRP in a BIAcore using purified scFvs, and the Kd was calculated by BIAevaluation software.
# c-Met567-Fc protein = target: T5, c-Met567-Fc protein (Homo sapiens, UniProt P08581); assay: Epitope ELISA on c-Met932-Fc and c-Met567-Fc; type: binding; conditions: immobilized recombinant proteins
# T5 construct: DNA fragments encoding amino acid residues 1 to 932 and 1 to 567 of c-Met were amplified by PCR; made in house; host or cells: 293T cells, transient transfection, protein G purification from supernatant
# Method: Therefore, binding epitopes of anti-c-Met scFvs localized within HGF binding domain of c-Met were investigated. The binding ability of anti-c-Met scFvs was examined for c-Met932-Fc protein including whole extracellular domain of c-Met, and c-Met567-Fc protein containing Sema and PSI domain, both of which have been defined as HGF binding regions (FIG. 2, panel C). The c-Met recombinant proteins were immobilized on titer wells, and incubated with anti-c-Met scFvs. Anti-c-Met polyclonal antibody and anti-E tag antibody was used as a positive and negative control, respectively. […] The binding intensity of S1 for c-Met932-Fc was similar to that for c-Met567-Fc.
# c-MetF932-Fc protein = target: T6, c-MetF932-Fc protein (Homo sapiens, UniProt P08581); assay: Competitive ELISA: soluble scFv inhibit HGF binding to immobilized c-Met protein; conditions: different concentrations of soluble scFv
# T6 construct: DNA fragments encoding amino acid residues 1 to 932 and 1 to 567 of c-Met were amplified by PCR; made in house; host or cells: 293T cells, transient transfection, protein G purification from supernatant
# Method: To monitor inhibition effect of scFv, we coated the c-MetF932-Fc protein on a 96-well plate and blocked nonspecific binder with 3% BSA in PBS. 1 nM human HGF (R&D) plus varying concentrations of anti-c-Met scFv or normal mouse IgG were applied to the wells. The amount of HGF bound to c-Met was determined using goat anti-human HGF (R&D), following incubation of HRP-labeled mouse anti-goat IgG (Jackson ImmunoResearch) and OPD substrate (Sigma) plus H2O2. The absorbance was measured with 490 nm using a microplate reader. Inhibition percentage was calculated by the following equation: [(the absorbance of HGF bound without competitor)−(the absorbance of HGF bound with competitor)]/(the absorbance of HGF bound without competitor)×100%.
# as §1
# [3] = purified scFv, c-MetF932-Fc on CM5 chip
# T4 sequence (P08581 25-307): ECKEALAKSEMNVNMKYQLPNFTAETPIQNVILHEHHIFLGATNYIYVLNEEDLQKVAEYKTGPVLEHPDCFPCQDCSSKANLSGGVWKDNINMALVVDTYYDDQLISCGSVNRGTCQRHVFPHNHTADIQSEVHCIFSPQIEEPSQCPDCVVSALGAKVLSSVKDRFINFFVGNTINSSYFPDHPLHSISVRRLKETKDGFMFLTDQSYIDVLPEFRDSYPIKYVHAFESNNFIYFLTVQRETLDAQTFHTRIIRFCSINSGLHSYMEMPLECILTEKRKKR
# T4 sequence (P08581 308-932): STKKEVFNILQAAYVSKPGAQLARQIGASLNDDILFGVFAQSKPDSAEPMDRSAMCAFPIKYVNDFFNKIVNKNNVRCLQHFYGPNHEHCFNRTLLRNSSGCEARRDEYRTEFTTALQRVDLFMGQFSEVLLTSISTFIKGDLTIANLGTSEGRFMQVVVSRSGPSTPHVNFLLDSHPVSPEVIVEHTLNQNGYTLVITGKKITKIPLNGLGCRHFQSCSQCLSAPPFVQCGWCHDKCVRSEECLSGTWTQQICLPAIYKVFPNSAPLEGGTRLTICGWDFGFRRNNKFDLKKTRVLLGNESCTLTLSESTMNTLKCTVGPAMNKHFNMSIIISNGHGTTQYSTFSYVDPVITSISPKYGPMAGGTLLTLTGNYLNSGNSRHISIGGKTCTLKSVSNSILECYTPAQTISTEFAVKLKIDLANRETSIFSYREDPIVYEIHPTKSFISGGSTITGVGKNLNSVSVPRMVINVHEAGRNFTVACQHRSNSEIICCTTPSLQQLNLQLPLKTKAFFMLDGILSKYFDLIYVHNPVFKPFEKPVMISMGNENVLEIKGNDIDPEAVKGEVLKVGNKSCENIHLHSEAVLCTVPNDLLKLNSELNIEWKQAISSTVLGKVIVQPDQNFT
# T2 sequence (P08581 with tags, fused parts or gaps limits assumed): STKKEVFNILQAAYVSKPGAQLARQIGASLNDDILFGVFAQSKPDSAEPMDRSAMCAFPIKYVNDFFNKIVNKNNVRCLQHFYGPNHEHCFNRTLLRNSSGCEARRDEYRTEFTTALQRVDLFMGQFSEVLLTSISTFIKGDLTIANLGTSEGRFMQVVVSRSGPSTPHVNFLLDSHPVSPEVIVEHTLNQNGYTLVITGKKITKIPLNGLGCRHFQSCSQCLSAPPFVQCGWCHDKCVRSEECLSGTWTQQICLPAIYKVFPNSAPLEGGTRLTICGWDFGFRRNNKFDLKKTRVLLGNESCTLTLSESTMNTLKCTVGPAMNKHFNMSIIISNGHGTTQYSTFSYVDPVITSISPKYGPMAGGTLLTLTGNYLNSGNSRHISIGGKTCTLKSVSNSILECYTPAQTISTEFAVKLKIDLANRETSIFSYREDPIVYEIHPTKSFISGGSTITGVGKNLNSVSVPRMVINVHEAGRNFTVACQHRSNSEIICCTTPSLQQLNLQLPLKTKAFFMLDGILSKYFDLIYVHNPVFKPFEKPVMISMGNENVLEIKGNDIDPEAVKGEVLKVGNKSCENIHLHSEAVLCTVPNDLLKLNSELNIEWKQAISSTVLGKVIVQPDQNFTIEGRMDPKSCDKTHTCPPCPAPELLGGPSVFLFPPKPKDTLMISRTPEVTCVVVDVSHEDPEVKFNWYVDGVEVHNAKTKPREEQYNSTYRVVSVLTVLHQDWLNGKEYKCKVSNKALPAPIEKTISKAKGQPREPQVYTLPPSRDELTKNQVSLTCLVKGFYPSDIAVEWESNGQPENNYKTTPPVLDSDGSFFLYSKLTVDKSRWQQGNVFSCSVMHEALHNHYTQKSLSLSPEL
# T2 sequence (P08581 25-307 limits assumed): as the sequence (P08581 25-307) above
# T5 sequence (P08581 25-567): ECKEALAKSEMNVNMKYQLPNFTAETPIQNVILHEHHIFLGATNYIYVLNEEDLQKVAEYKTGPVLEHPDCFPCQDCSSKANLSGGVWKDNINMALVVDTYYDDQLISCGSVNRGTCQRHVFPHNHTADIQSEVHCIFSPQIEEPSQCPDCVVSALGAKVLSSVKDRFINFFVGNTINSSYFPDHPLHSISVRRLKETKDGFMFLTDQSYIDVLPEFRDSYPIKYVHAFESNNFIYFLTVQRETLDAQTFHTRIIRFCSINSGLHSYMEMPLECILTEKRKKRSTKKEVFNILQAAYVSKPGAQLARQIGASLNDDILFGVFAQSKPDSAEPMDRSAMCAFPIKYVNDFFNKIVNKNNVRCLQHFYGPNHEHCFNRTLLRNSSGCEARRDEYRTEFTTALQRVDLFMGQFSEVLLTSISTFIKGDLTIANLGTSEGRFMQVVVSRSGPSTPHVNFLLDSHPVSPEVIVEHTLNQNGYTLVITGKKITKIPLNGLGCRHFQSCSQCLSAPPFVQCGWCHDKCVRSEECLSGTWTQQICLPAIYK
# T1 sequence (P08581 25-1408 isoform P08581-2 limits assumed): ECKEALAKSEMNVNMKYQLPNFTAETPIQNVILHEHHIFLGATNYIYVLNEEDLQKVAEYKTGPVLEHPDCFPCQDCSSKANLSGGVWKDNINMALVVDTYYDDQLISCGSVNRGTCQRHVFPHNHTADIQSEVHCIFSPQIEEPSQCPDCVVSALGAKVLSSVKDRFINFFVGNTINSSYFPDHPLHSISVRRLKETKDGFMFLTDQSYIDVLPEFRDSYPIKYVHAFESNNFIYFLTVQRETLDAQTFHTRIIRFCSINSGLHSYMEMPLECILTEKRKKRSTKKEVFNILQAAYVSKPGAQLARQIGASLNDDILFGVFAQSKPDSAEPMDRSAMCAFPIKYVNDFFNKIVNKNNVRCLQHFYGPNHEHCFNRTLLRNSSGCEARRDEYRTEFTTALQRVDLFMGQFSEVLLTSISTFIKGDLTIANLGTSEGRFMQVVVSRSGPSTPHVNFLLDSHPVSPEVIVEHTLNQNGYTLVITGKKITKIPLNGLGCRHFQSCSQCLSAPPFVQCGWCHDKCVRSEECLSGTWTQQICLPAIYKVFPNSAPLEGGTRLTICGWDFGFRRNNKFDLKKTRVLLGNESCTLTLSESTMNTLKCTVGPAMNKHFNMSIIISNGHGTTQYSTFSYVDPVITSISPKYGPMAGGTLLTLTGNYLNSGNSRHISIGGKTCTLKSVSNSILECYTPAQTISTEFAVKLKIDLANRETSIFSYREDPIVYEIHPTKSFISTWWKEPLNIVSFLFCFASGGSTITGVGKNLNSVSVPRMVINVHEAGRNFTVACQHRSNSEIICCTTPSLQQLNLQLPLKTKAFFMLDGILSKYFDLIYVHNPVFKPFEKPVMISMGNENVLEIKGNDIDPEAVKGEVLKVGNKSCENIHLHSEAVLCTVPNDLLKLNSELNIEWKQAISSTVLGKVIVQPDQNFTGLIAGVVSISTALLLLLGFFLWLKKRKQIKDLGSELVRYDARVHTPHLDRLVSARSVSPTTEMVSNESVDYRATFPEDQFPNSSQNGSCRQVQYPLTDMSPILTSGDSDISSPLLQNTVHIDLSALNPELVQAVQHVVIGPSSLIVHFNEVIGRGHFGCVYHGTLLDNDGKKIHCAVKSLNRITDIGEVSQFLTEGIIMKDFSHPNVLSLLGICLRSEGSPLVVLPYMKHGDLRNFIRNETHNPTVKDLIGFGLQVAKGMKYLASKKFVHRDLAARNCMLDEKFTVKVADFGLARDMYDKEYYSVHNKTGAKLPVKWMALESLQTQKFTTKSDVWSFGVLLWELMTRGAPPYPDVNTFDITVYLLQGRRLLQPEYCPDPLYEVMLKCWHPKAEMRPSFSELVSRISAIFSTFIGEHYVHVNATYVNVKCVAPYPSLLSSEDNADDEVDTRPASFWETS
# T6 sequence (P08581 25-307 limits assumed): as the sequence (P08581 25-307) above
# T6 sequence (P08581 308-932 limits assumed): as the sequence (P08581 308-932) above
Molecule,Binding to cellular c-Met on 293T cells [1],c-Met binding affinity in comparative ELISA (c-Met-Fc protein),Inhibition of HGF binding to H1993 cells [2],"Kd (c-Met932-Fc protein; purified scFv 5 to 200 nM, c-MetF932-Fc coupled to CM5 chip, Kd calculated by BIAevaluation software) [nM]",Koff (c-Met932-Fc protein; [3]) [s⁻¹],Kon (c-Met932-Fc protein; [3]) [M⁻¹ s⁻¹],Binding to c-Met567-Fc compared to c-Met932-Fc (c-Met567-Fc protein),Inhibition of binding activity of HGF to c-Met (c-MetF932-Fc protein)
"PC1: phage-displayed anti-c-Met scFv, phage clone 1 (protein, left off: large carriers) scFv: MAQVQLQQSGPGLVKPSQTLSLTCDISGDSVSSNSAAWNWIRQSPSRGLEWLGRTYYRSRWYNEYAVSVRGRISINAETSKNQFSLQLNSVTPEDTAIYYCARAGFCSGGNCYPGSEDAFDLWGQGTMVTVGGGGSGGGGSGGGGSDVVMTQSPPSLSVSVGDRVTITCRASQDITNDLNWYQQKPGKAPQLLIYHASELETGVPSRFSGSGFGTDFTLTISSLQPADIATYYCQQYDDLPLTFGGGTKVEIKR",higher than that of PC20 and PC21,stronger c-Met binding affinity than either PC20 or PC21,more than 90%,–,–,–,–,–
"S21: soluble anti-c-Met scFv corresponding to phage clone PC21; VH/VL sequences in Table 1 (protein, left off: small tags and cut ends) scFv: MAEVQLVESGPGLVKPSGTLSLKCDASAISMDSNYWWSWLRQPPGKGLEWIGEISHSGSTDYNPSLKSRATISIDKSKKQFFLRLKSVTAADTAVYYCAGLLSPLDAFDEWGQGTMVTVGGGGSGGGGSGGGGSDIQMTQSPSSLSASVGDRVTITCRASQRVATYLNWYQQKPGKAPNLLIYEASSLQSGVPSRFSGRRSGTDFTLTISSLQPEDFATYYCQQSYNTPYTFGQGTRLEIKR",–,–,–,14.9,0.00389,261000,dramatically decreased,only slightly inhibited
